Data taken from US20260069726A1, “ZWITTERIONIC COMPOUNDS AND USES THEREOF” (priority 2022, published 2026).

Legend:
[1] = format: physicochemical; settings: pH 7.4
Experimental: The lipophilicity of each one of the [^68Ga]Ga-DOTA-TATEs were assessed as described in the literature. In brief, two phases of 1-octanol and phosphate buffer (PBS) at a pH of 7.4 were presaturated with each other. The presaturated 1-octanol (3.0 mL) was added to 3.0 mL of presaturated PBS that had about 0.3 MBq of labelled [^68Ga]Ga-DOTA-TATEs. The mixture was vortexed for 1.0 minute at room temperature then centrifuged for 1.0 minute at 3000 RPM. 1.0 mL of each phase was taken and measured its activity in automated gamma counter. Log D7.4 was determined for at least three experiments using Equation 1 below, where CPM (count per minute) is the reading from the gamma counter.

in vivo = settings: male, NOD-SCID gamma (NSG), mouse, in vivo, iv, total radioactivity
Experimental: (§1) The experimental protocol was approved by the University of Saskatchewan Committee on Animal Care and procedures were performed in accordance with the guidelines of the Canadian Council on Animal Care and the Canadian Nuclear Safety Commission. Aliquots of about 200 μL of each one of [^68Ga]Ga-DOTA-TATEs (7-5 MBq with <10% EtOH) were loaded to 0.5 mL syringes and >96% Radiochemical yields (RCY) were confirmed by using radio-HPLC followed by injection to healthy CD1 female mice and xenograft bearing male NOD-SCID gamma mice (USASK colony F1 005557, strain NOD.Cg-PrkdcscidIl2rg) (n=4), via tail vein catheter while in the PET scanner with image acquisition started, under anesthesia (2.5% isoflurane in O2, at a flow rate of 2 mL/min). 90-minute dynamic images of all four mice were collected simultaneously on the Sofie GNEXT PET/CT small animal imaging system using the included 4-mouse heated bed. The mice were euthanized (by cervical dislocation while they were under the effect of anesthesia) at 2 hrs post injection and blood and specific organs were harvested, weighed, and residual activity in the organs were measured by using an automated gamma counter. All images were reconstructed using VivoQuant® 2020 software (patch 1 64 bit, build vq-2020patch1-0-ga8255affc).
(§2) As done for healthy mouse studies, animals were awakened for 30 minutes following PET/CT and then euthanized at 2 hours post injection. Tissue/organ samples were collected, weighed, and the amount of activity present in the samples was measured using an automated gamma counter.

[2] = test system: AR42J (SSTR2 over-expressing) subcutaneous tumors; assay: Ex vivo biodistribution in xenograft mice two hours post injection; settings: for tumor uptake compared with the other compounds: AR42J tumor bearing mice; for tumor uptake compared with the other compounds / tumor uptake, biodistribution / tumor-to-kidney ratio: 2 hours post injection; for tumor uptake, biodistribution / tumor-to-kidney ratio: male AR42J tumor bearing mice; for pharmacokinetic of healthy-tissue clearance (words, figure legend) / tumor-tissue ratios (words, figure legend): mouse, in vivo
Experimental: as §1, §2

[3] = format: in vitro ADME; settings: plasma
Experimental: Serum binding assay for each one of [^68Ga]Ga-DOTA-TATEs were carried out as described in the literature. Compendiously, labelled [^68Ga]Ga-DOTA-TATEs (4-3 MBq) were added to freshly prepared 0.1 mL of anticoagulated human or mice plasma and the mixtures were incubated for 120 minutes at 37° C. This was followed by addition of 1.0 mL ice-cold acetonitrile and centrifuged for 2 minutes at 3000 RPM. The addition of acetonitrile had been repeated two times and all supernatants (denoted as A) were combined and the total radioactivity was measured using automated gamma counter. The radioactivity of the precipitate (B) was measured as well. The plasma-protein binding rate was calculated using Equation 2 below (n=3).

[4] = format: in vitro ADME, human
Experimental: (§3) Serum stability was determined using a previously published method. Aliquots of each one of the [^68Ga]Ga-DOTA-TATEs (5.0 MBq) were added to 0.4 mL human or mice serum and incubated at 37° C. Aliquots (20 μL) were taken at various time intervals (10, 30, 60, 90, 120 minutes) and quenched in ice-cold acetonitrile. The samples were centrifuged, and the supernatants were diluted further with deionized water and were analyzed by radio-HPLC (a flow rate 0.65 mL/min with a gradient of CH3CN:H2O with 0.1% TFA in both). 5.0 MBq of [^68Ga]Ga-DOTA-TATEs were prepared in 0.4 mL of PBS and used as a reference in the radio-HPLC measurement for the stability in serum study.

[5] = format: in vitro ADME, mouse
Experimental: as §3

[6] = design: species or system healthy CD1 mice; settings: mouse, in vivo
Experimental: Experiments were performed in healthy female mice (CD1) to determine the behavior and distribution of these compounds (pharmacokinetics). Mice were catheterized via tail vein and injected while in the scanner, and dynamic PET-CT imaging was performed from time 0 until 1.5 hours post injection (n=4 each group, 4 mice in the scanner simultaneously).

[7] = design: species or system healthy CD1 mice; settings: mouse, in vivo; remark: listed apart in the source
Experimental: After imaging was complete, the mice were kept awake for an additional 30 minutes before being euthanized, bringing the total period of the injection to 2 hours. Biodistribution was performed by removing and weighing individual tissues and organs, and then measuring the activity of [^68Ga]Ga^3+ inside each sample using an automated gamma counter.

[8] = test system: AR42J (SSTR2 over-expressing) subcutaneous tumors; assay: Dynamic PET/CT imaging (0-90 minutes) in tumor-bearing mice; settings: male NSG mice bearing AR42J tumors
Experimental: as §1

SMILES	logD [1]	tissue uptake at 2 h (in vivo) [%ID/g]	tumor uptake compared with the other compounds ([2]; listed as Lys(ZW) derivative)	tumor uptake compared with the other compounds ([2]; listed as [^68Ga]Ga-DOTA-Lys(ZW)-PEG4-TATE)	tumor uptake, biodistribution [2] [% ID/g]	tumor-to-kidney ratio [2]	pharmacokinetic of healthy-tissue clearance (words, figure legend) [2]	tumor-tissue ratios (words, figure legend) [2]	fraction unbound at 120 min [3]	HSS % (2 hrs.) = Human Serum Stability [4] [%]	MSS % (2 hrs.) = Mouse Serum Stability [5] [%]	tumor uptake compared with the other compounds [2]	start of excretion / renal elimination into the bladder [6] [minutes post injection]	fraction unbound [3]	renal uptake, biodistribution [7] [D/g %]	kidney accumulation, retention and clearance seen in dynamic PET/CT [8]
C[C@@H](O)[C@H](NC(=O)[C@@H]1CSSC[C@H](NC(=O)[C@@H](Cc2ccccc2)NC(=O)CCOCCOCCOCCOCCNC(=O)[C@H](CCCC[N+](C)(C)CCCS(=O)(=O)[O-])NC(=O)CN2CCN(CC(=O)O)CCN(CC(=O)O)CCN(CC(=O)O)CC2)C(=O)N[C@@H](Cc2ccc(O)cc2)C(=O)N[C@H](Cc2c[nH]c3ccccc23)C(=O)N[C@@H](CCCCN)C(=O)N[C@@H]([C@@H](C)O)C(=O)N1)C(=O)O [DOTA-(ZW1)-PEG4-TATE]	-3.39 ± 0.19	32.9 ± 19.8	greater tumor uptake	highest	20.6±2.5	0.63	faster	improved	0.534	100	100	–	–	–	–	–
C[C@@H](O)[C@H](NC(=O)[C@@H]1CSSC[C@H](NC(=O)[C@@H](Cc2ccccc2)NC(=O)CCOCCOCCOCCOCCNC(=O)[C@H](CCCC[N+](C)(C)CCCS(=O)(=O)[O-])NC(=O)[C@H](CCCC[N+](C)(C)CCCS(=O)(=O)[O-])NC(=O)CN2CCN(CC(=O)O)CCN(CC(=O)O)CCN(CC(=O)O)CC2)C(=O)N[C@@H](Cc2ccc(O)cc2)C(=O)N[C@H](Cc2c[nH]c3ccccc23)C(=O)N[C@@H](CCCCN)C(=O)N[C@@H]([C@@H](C)O)C(=O)N1)C(=O)O [DOTA-(ZW2)-PEG4-TATE]	-3.36 ± 0.18	–	–	–	–	–	faster	improved	0.515	100	100	reduced tumor uptake	–	–	–	–
C[C@@H](O)[C@H](NC(=O)[C@@H]1CSSC[C@H](NC(=O)[C@@H](Cc2ccccc2)NC(=O)CCOCCOCCOCCOCCNC(=O)[C@@H](Cc2ccc[n+](CCCS(=O)(=O)[O-])c2)NC(=O)CN2CCN(CC(=O)O)CCN(CC(=O)O)CCN(CC(=O)O)CC2)C(=O)N[C@@H](Cc2ccc(O)cc2)C(=O)N[C@H](Cc2c[nH]c3ccccc23)C(=O)N[C@@H](CCCCN)C(=O)N[C@@H]([C@@H](C)O)C(=O)N1)C(=O)O [DOTA-Pyr(ZW)-PEG4-TATE]	-3.57	–	–	–	–	–	–	–	0.575	100	99.6 ± 0.1	–	–	–	–	–
C[C@@H](O)[C@H](NC(=O)[C@@H]1CSSC[C@H](NC(=O)[C@@H](Cc2ccccc2)NC(=O)CN2CCN(CC(=O)O)CCN(CC(=O)O)CCN(CC(=O)O)CC2)C(=O)N[C@@H](Cc2ccc(O)cc2)C(=O)N[C@H](Cc2c[nH]c3ccccc23)C(=O)N[C@@H](CCCCN)C(=O)N[C@@H]([C@@H](C)O)C(=O)N1)C(=O)O [DOTA-TATE, DOTA-Tyr^3-octreotate, reference compound]	-2.81	38.8 ± 42.7	–	–	13.8±4.6	0.35	–	–	–	100	100	–	~70	0.567	~74±51	rapid accumulation and protracted retention
